According to article PMC6872781 (Neoplasia (New York, N.Y.), 2019):

Biological target: T1, PODXL1-HA(x3)-His(x6) (human, UniProt O00592-1 23-558)
T1 sequence (looked up): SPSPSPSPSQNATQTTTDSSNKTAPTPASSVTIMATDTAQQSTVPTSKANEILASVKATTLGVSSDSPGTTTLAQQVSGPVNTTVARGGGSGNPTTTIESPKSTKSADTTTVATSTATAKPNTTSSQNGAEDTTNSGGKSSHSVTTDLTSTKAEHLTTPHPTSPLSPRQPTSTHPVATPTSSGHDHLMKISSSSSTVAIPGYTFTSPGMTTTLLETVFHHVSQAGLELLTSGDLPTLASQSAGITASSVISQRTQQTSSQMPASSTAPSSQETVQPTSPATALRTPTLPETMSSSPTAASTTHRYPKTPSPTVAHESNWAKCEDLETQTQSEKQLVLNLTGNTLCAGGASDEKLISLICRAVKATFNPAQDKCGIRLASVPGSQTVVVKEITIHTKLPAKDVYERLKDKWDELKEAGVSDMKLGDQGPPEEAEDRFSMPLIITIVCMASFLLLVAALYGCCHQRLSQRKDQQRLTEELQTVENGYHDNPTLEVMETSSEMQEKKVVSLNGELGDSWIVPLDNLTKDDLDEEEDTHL
Test: pull-down

binding result: binds
B1: C5aR (Complement component 5a receptor 1), C-terminal 3xFlag-6xHis-tagged (receptor, human, UniProt P21730 1-350, looked up)
chain: MDSFNYTTPDYGHYDDKDTLDLNTPVDKTSNTLRVPDILALVIFAVVFLVGVLGNALVVWVTAFEAKRTINAIWFLNLAVADFLSCLALPILFTSIVQHHHWPFGGAACSILPSLILLNMYASILLLATISADRFLLVFKPIWCQNFRGAGLAWIACAVAWGLALLLTIPSFLYRVVREEYFPPKVLCGVDYSHDKRRERAVAIVRLVLGFLWPLLTLTICYTFILLRTWSRRATRSTKTLKVVVAVVASFFIFWLPYQVTGIMMSFLEPSSPTFLLLKKLDSLCVSFAYINCCINPIIYVVAGQGFQGRLRKSLPSLLRNVLTEESVVRESKSFTRSTVDTMAQKTQAV
